Test results reported in paper doi:10.1101/2023.01.21.525003 (bioRxiv, 2023).

Biological target: Gluc-LHCGRv4 (Gaussia luciferase fused to the N-terminus of the luteinizing hormone/chorionic gonadotropin … (human, UniProt P22888 27-699))
Test: FRET or BRET

Sequence of Gluc-LHCGRv4 (Gaussia luciferase fused to the N-terminus of the luteinizing hormone/chorionic gonadotropin … (P22888 27-699): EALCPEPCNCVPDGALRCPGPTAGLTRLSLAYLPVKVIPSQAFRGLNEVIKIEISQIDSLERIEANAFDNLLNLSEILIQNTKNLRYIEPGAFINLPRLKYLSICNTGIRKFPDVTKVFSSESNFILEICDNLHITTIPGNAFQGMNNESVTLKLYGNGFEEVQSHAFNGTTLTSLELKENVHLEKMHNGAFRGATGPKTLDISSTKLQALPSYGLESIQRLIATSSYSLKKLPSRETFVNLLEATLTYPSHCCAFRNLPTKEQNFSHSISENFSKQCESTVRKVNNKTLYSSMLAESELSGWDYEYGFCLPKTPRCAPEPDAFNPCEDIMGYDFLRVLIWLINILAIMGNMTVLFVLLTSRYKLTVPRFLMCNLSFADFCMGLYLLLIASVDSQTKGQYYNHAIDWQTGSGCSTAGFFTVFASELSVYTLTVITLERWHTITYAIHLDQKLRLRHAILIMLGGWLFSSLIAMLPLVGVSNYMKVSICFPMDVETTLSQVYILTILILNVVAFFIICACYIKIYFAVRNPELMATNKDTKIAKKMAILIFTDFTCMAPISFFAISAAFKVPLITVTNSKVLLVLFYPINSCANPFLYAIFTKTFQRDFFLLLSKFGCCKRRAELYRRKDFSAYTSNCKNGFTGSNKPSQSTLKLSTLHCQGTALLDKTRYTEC

BRET ratio, fold over stimulation with unlabeled hormone: 4 fold
B1: LHB^WT-eGFP/CGA (luteinizing hormone: LH beta subunit fused to eGFP, co-expressed with the common glycoprotein alpha subunit) (complex)
chain 1: SREPLRPWCHPINAILAVEKEGCPVCITVNTTICAGYCPTMMRVLQAVLPPLPQVVCTYRDVRFESIRLPGCPRGVDPVVSFPVALSCRCGPCRRSTSDCGGPKDHPLTCDHPQLSGLLFL
chain 2: not shown
